In the DeepSol protein solubility set:

experiment: soluble on expression in E. coli; label from the status in PepcDB or PDB records

Sequence	soluble on expression in E. coli
MGSDKIHHHHHHASCSGGDKSKAPVVSTADIENAAEVIKYYNTSLGVLKDMVKEKDVNAVLDYMEQKGKTPALSAIVPPAVVSKDSAIVLNPGNCFNEETRRNLKQNYTGLFQARTEFYANFDTYLSYLKKKDVTNAKKLLDVNYQLSTQMSEYKQNIFDILSPFTEQAELVLLVDNPLKAQIMSVRKMSSTMQSILNLYARKHRMDGPRIDLKVAELTKQLDAAKKLPVVNGHEGEMKSYQAFLSQVETFIKQVKKVREKGEYSDADYDMLTSAFETSII	not soluble
MGSSHHHHHHSSGRENLYFQGHMHANIRYSFGGDEHLFAEVAEAMSLEAFFRGMAITRAIEALQLPGVLDVCLANASFQVRFDPDRLAPQALLETVRGLEAEAVAARSIETRIVEVPVLYNDPWTHETLMRFRDRHQDPDSTDLEYAARINGYADVQAFIQAHSGTPWFVSMVGFVAGLPFMYQMVERERQLQVPKYLRPRIDTPKLTLGHGGCFGCIYSVRGAGGYQMFGVTPAPIFDPRQGLPYLEESMVFFRAGDIVQFRPIERTEYEHMAAEVESGTFDLRIRPVSFDLDAFLADPRGCTQHLQEVLHVD	soluble
MKVRADFAFEKVARDWFVRWSKGRSEKYAGQVMRNFERWVFPAIGNLDIRQVRTADVVGCLRVMEARGIVDTLRKTKNSLKMVFAFAVGSGMMEINPVAQIGSGVFERLEHHHHHH	soluble
MGSDKIHHHHHHMAKKAKVQFECQSCGYVSPKYLGRCPNCGQWNSMVEEVIQDTSDRRARVSLTGKKTQPQRLSEVIPKKEPRVKTELVELNRVLGGGVVPGSLVLIGGDPGIGKSTLLLQVSQQLAATGGTVLYVSGEESAEQIKLRAERLGTVNETFYLYAETDMHEISRAIEKLEPDYVIIDSIQTMTQPDVTSVAGSVSQVRETTAELLKLAKTNGIAIFIVGHVTKEGSIAGPRMLEHMVDTVLYFEGDKHHTFRILRAVKNRFGSTNEIGIFEMQTHGLVEVMNPSQVFLEERLEGATGSSIVVAMEGSRPILVEIQALVTPTMFGNAKRTTTGLDFNRVSLIMAVLEKRAGLLLQNQDAYLKAAGGVKINEPAIDLALAISIASSYKEKGTSSSECFIGEIGLTGEIRRVNSIEQRVREAQKLGFTKVYVPKNNLGGWEAPEGIEIIGVSTIGETLRKVFK	not soluble
MGAQVSTQKTGAHETGLRASGNSIIHYTNINYYKDAASNSANRQDFTQDPGKFTEPVKDIMVKSLPALN	soluble
MKGYGEMAKNNPTRITAEPGKQEIIITREFDAPRELVFKAFTDPDLYTQWIGPRGFTTALKIFEPKNGGSWQYIQKDPEGNEYAFHGVNHDVTEPERIISTFEFEGLPEKGHVILDTARFEALPGDRTKLTSHSVFQTIEDRDGMLQSGMEEGINDSYERLDELLEKMKKLEHHHHHH	soluble
MKQIYFGGGCFWGTQKYFDLIKGVQKTSVGYLNSNMKNPTYEQVCSGQTNAVEAVFVEYDENKVSLNELIDAFFKVIDPTIRNRQGNDIGTQYRTGVYWVDPQDEQLITQKFRELQANYPKPIVTENRAMENYFLAEEYHQDYLKKNPHGYCHIKFD	soluble
MADRGGFQSGFGGRGGGRGGARPAGDRPAGRGGRGGRGGRGGRGGRAGRGGEKETEWTPVTKLGRLVKEKKITTLEEIYLNSLPIKEFEIIDALCSNLKDEVLKISPVQKQTTAGQRTRFKAFVAIGDHAGHVGLGVKCSKEVATAIRGAIVAAKLAVVPVRRGYWGNKIGLPHTVPCKVTGKCASVMVRLIPAPRGTGIVSAPVPKKLLHMAGIEDCYTAAKGSTATLGNFAKATYAALQRTYSYLTPDLWKEEALEKSPYQRHHEYLARN	not soluble
MRLLVIIILVAFFLCTTAELMEKRSSMGGSAFGGIDRIPLSYLRKYYRQKTMKRDDNELLDFSPQNSQLGYRSISFWPLY	not soluble
MIEVDGYFYHNAGAENKNTFVNDRWKMNDAAVRGYLVLRYPASSVFEELDTIVGQVIFATRVVREELVVVDSTRRWHRGPWEWLPLDSW	not soluble
MSLSIQRILFPTDFSDGARRAFPQAAHLADWHDAGLHILNVTGRHRHDHEETTANFPIATDTLTKWLRRPEKSVRGANWPDLEALPITQEQVESAEPAERILAYAEDEAIDLIVMGTHGRRGVDRMLFGSVTEEVVRKAPCPTLTVRADADVAPDQAVRRVLAPVDFSDASRSAVRHAKEIALTYGAEIDLLHVVEEPFYPPAYGLGETGFPTDKVIGSVEDELADLARSEVGYEHVMIEARTGEPSREILNYIDENEVDLTVIASHGRTGLDRMLIGSVAERVVRQSPTPVFVAKPDRAALVSSDAAEGHHHHHH	not soluble
MGSDKIHHHHHHMSDVLAYSVPAPAVVFPPMSPAPRVVPIAVQAPRKDALGCTACSMRSICMPQGLTPTELQRIEALICPSRTIKQGETIYRANDSFQSIYVVRVGSFKTVVMHRDGREQVTGFHLAGDSLGLDGVCSGHHSCDAIALEDSKMCIIPFHLLETMCREVKAVQQHVHRMMGGEIVRESSQMMLLGTMSAEQRVAT	not soluble
MSLMELQGKFLIAMPHLDDYFNRTVVFMCEHNEQGSMGLVINQPTDLSIAELYSKLNFMMKNDRTFGNEMVVAGGPMHTERGFILHKNTLNAFQHTYKVTKELSMTTSADVVETLGSTFAPEKYLVALGCSSWGAGQLEKEIRDNAWLVVSSNDQILFDMPYEDRYAAANQLLGIHPYNFALAQVGHSEGGSHHHHHH	soluble
MGSAVIRVLSYNIRSMRDDTAALARVISACEPDLVLVQEAPRFFRWRKKLAPLASACGQVVLSGGATAAGPALLCSLRATVERTEDVLLPLTPGLHRRGFATAVVRFGRARLGVLSCHLSLQKNERYEQGGMLLDHLARLGTPHAIAGGDLNERPDGRTFKRLASELRDCWATAPWGAEYTSTPADPHQRIDAILATPGIEVLACGVPLGHPGVTEADLRAATDHLPVLAALRVPASLEHHHHHH	not soluble
MGSDKIHHHHHHMSEATLLSYTKKLLASPPQLSSTDLHDALLVILSLLQKCDTNSDESLSIYTKVSSFLTALRVTKLDHKAEYIAEAAKAVLRHSDLVDLPLPKKDELHPEDGPVILDIVGTGGDGQNTFNVSTSAAIVASGIQGLKICKHGGKASTSNSGAGDLIGTLGCDMFKVNSSTVPKLWPDNTFMFLLAPFFHHGMGHVSKIRKFLGIPTVFNVLGPLLHPVSHVNKRILGVYSKELAPEYAKAAALVYPGSETFIVWGHVGLDEVSPIGKTTVWHIDPTSSELKLKTFQLEPSMFGLEEHELSKCASYGPKENARILKEEVLSGKYHLGDNNPIYDYILMNTAVLYCLSQGHQNWKEGIIKAEESIHSGNALRSLEHFIDSVSSL	not soluble
RTEVVAVALDTSLEELKGRFVESGISKIIVYDGNIDNVVGYIHSSEMFRSPKDWRNHVKEVPIVPETMAAHKLMKLFMQQKKTIAVVVDEFGGTSGIVSLEDLVEEIFGDIEDEHDNTSYICKQIGE	not soluble
MERPRFSNYYAVRVTGGQEINVALMIEERIKTNNIKEVYSIIVPPNVKGYVILEATGPHVVKLVSQGIRHVRGFAQGLVQKDDIIKFISKTTIAPAYKVGDMVEVTSGPFRGMQAQVVRIDSAKNEVVLNILESSFPLQVTVPIDQVKPVKK	soluble
MSLPKIIPAIMAGGRGTRLWPLSRATAAKQFLKLIGEETLFQDTLKRVSDAKVYGAPLVITNEEFRFLVAEQARELGVTLSSIVLEPVPRNTAAAVAVAARIVADRFGEDALLLVLPSDHAITVDDTYKKCVRSACIAAAEGKLVTFGIQPTWPATGYGYIERGTYLGKDVHAVQCFVEKPSLEKAAALLETGNYYWNSGMFLFQAASIIAELEEHAPDVLSAVHAAVRGSTVDADFIRLAPESFSQAPSISIDYALMEKTANAAVVCSDFAWSDLGSWDAVWKNEEQNADGNVLKGNVTACNTKNSLVLSHTAHLAVQGMDGVAVIASEDAVFVGRLEEAHEIGNLVKRLAADENTARLTELHPTLIRPWGGYTTMLNGDRFQVRRLFVRPGKMLSLHKHFHRSEHWICVKGTAEVTIEDRVTILHENQSIYIPEGAIHRLGNPGKIMLELVEIQTGAYLGEDDIIRVADESRNEMPDSREGHHHHHH	not soluble
